Experimental data reported in publication PMC11224109, “Synthesis and preclinical evaluation of novel ^18F-vancomycin-based tracers for the detection of bacterial infections using positron emission tomography” (European Journal of Nuclear Medicine and Molecular Imaging, 2024).

Experiments:
[1] = Distribution coefficient LogD7.4, shake-flask n-octanol/PBS; type: physicochemical; conditions: shake-flask n-octanol/PBS pH 7.4, 500 µL each, 10 µL tracer in saline, vortexed 30 s, shaken 15 min, gamma counter, mean ± SD
Experimental: The tracer distribution coefficient in n-octanol/PBS pH 7.4 (LogD7.4) was determined using a shake-flask methodology. To an Eppendorf tube containing 500 µL n-octanol and 500 µL PBS, 10 µL tracer solution in saline was added. The vial was vortexed for 30 s and placed on an Eppendorf shaker for 15 min. After incubation, layers were separated by centrifugation (1 min at 10.000 rpm) and a fraction of the n-octanol layer was pipetted off. To minimize contamination of the bottom layer with the n-octanol layer, the bottom PBS layer was collected by puncturing the bottom of the Eppendorf tube with a 22G needle and aspirating a fraction of the PBS layer. Collected fractions were weighted to correct for collected volume and subsequently measured on a calibrated gamma counter and corrected for decay. LogD7.4 was calculated as [drawing 1] .

[2] = system: S. aureus USA300 MRSA strain; assay: Competition with unlabeled vancomycin; type: binding, Staphylococcus aureus
Experimental: [^18F]FB-vancomycin was excluded due to its limited in vitro and in vivo stability. On the day of the experiment, a fresh culture was started in 10 mL of TSB and grown to an OD600 of 2.0. […] Bacteria were added to the dilutions to obtain a final OD600 of 0.2 and the vial was briefly vortexed to ensure proper mixing. Tracer was added (125 kBq per mL, 40.3 pg and 0.5 pg of [^18F]BODIPY-FL-vancomycin and [^18F]PQ-VE1-vancomycin, respectively) and the vial was vortexed again. After 30 min incubation, aliquots were collected in 2 mL Eppendorf tubes and washed twice with PBS by centrifugation. […] Measurements were corrected for background and decay. Results are reported as 10^3 counts per s (kBq).

Gram-positive bacteria = assay: Tracer binding to test panel of clinically relevant bacteria, Gram-positive; parameters: species or system C. acnes, E. faecalis, S. aureus, S. capitis, S. epidermidis; conditions: summary table
Experimental: Clinical isolates of E. cloacae, S. capitis, S. aureus, as well as type strains of E. coli, E. faecalis, K. pneumoniae, P. aeruginosa and S. epidermidis were grown under aerobic conditions in brain heart infusion broth. A clinical isolate of the anaerobic bacterium C. acnes was grown on plate in an anaerobic chamber, and subsequently cultured in liquid medium with minimal headspace. Samples from fresh bacterial cultures were normalized to an OD600 of 1.0, fixed in PBS with 0.5% paraformaldehyde (PFA) for 10 min at room temperature, and resuspended in 1 mL sterile PBS. The fixated bacteria were incubated with tracer (133 kBq per mL, 42.8 pg and 0.6 pg of [^18F]BODIPY-FL-vancomycin and [^18F]PQ-VE1-vancomycin, respectively) and washed twice with sterile PBS. […] Measurements were corrected for background and decay. Results are reported as percentage of the total tracer added.

in vivo = conditions: in vivo; for tissue uptake at 0.5 h / tissue uptake at 1 h / tissue uptake at 1.5 h: male, C57BL/6, mouse, 2 MBq, total radioactivity, Biodistribution
Experimental: All murine experiments were approved by the Animal Care and Use Committee of the University of Groningen under license protocol number 2114768-01-001. In vivo biodistribution was performed in male C57BL/6 mice (age 8 weeks, 25 g). Per tracer, the animals were divided in three groups based on the tracer distribution times (30 min, 60 min, and 90 min). […] Each experimental arm (i.e. time point) consisted of three animals. […] Tracer was administered at t = 0 via penile vein injection (2.0 ± 0.9 MBq in 100 µL 0.9% saline solution, Supplemental Table 2). After tracer administration, the animals were transferred to a Siemens Focus 220 microPET small animal scanner (Siemens, Munich, Germany) and scanned for the designated time, followed by a transmission scan of 10 min for attenuation correction. PET data were normalized and corrected for decay, after which the PET data were reconstructed using OSEM2D-Z1-SC-256. The PET data frames used for reconstruction were: 6 × 10 s, 4 × 30 s, 2 × 60 s, 120 s, 180 s, 4 × 300 s, 3 × 600 s, 1200 s or until the designated scan time was reached, taking into account a 10-min transmission scan following the emission scan. Next, animals were terminated, and organs harvested to assay biodistribution in a calibrated gamma counter (Wizard2, Perkin Elmer, Waltham, United States).

[3] = Summary of tracer stability in vitro and in vivo
Experimental: Stability of the tracers was determined in PBS and human plasma. In a typical experiment, 1 MBq of radioactivity (10–20 µL) was added to 250 µL of PBS or human plasma. Samples were heated to 37 °C on a shaker and sampled at fixed intervals. For samples containing human plasma, protein was precipitated using two volumes of cold MeCN. Precipitated samples were briefly centrifuged to pellet the insoluble fraction and supernatant was used for stability assessment. Supernatant (1 µL) was loaded on a TLC plate and imaged using BAS-IP MS 2025 E plates (Fujifilm, Tokyo, Japan) on an Amersham Typhoon Biomolecular Imager (GE Healthcare Bio-Sciences Corp, Chicago, United States) equipped with a phosphor imaging stage. [^18F]BODIPY-FL-vancomycin has an Rf of 0.68 (petroleum ether/MeOH 3:1), [^18F]FB-vancomycin has an Rf of 0.66 (2 M NaOAc/MeOH 5:1). For [^18F]PQ-VE1-vancomycin, conditions described in [44] were used.

[4] = S. aureus USA300, OD600 0.2, 125 kBq tracer per mL, 30 min incubation, gamma counter

Structure (SMILES): Cc1cc(C)n2c1C=C1C=CC(CCC(=O)N(C)[C@H](CC(C)C)C(=O)N[C@H]3C(=O)N[C@@H](CC(N)=O)C(=O)N[C@H]4C(=O)N[C@H]5C(=O)N[C@H](C(=O)N[C@H](C(=O)O)c6cc(O)cc(O)c6-c6cc5ccc6O)[C@H](O)c5ccc(c(Cl)c5)Oc5cc4cc(c5O[C@@H]4O[C@H](CO)[C@@H](O)[C@H](O)[C@H]4O[C@H]4C[C@](C)(N)[C@H](O)[C@H](C)O4)Oc4ccc(cc4Cl)[C@H]3O)=[N+]1[B-]2(F)F [[^18F]BODIPY-FL-vancomycin]
- LogD7.4 [1]: -1.72 ± 0.02 (n = 10)
- Vancomycin concentrations at which tracer binding is outcompeted, compared with [^18F]PQ-VE1-vancomycin ([2]; S. aureus USA300, 30 min incubation): slightly lower
- Tracer binding to S. aureus at a concentration of 1024 µg/mL vancomycin [2, 4]: reduced to baseline
- Tracer binding to S. aureus at vancomycin concentrations below 2 µg/mL [2, 4]: not significantly inhibited
- Tracer binding to S. aureus at vancomycin concentrations of up to 64 µg/mL [2, 4]: signal over background was still detected
- Binding to Gram-positive bacteria in vitro (Gram-positive bacteria): LogD7.4 -1.72. Am 5.35 GBq/µmol. MIC 16 µg/mL. Binding to Gram-positive bacteria in vitro.
- tissue uptake at 0.5 h (in vivo; iv, Bladder): 4.83 %ID/g
- tissue uptake at 1 h (in vivo; iv, Bladder): 7.62 %ID/g
- tissue uptake at 1.5 h (in vivo; iv, Bladder): 9.43 %ID/g
- tissue uptake at 0.5 h (in vivo; iv, Bone): 1.2 %ID/g
- tissue uptake at 1 h (in vivo; iv, Bone): 2.71 %ID/g
- tissue uptake at 1.5 h (in vivo; iv, Bone): 3.27 %ID/g
- tissue uptake at 0.5 h (in vivo; iv, Brain): 0.05 %ID/g
- tissue uptake at 1 h (in vivo; iv, Brain): 0.09 %ID/g
- tissue uptake at 1.5 h (in vivo; iv, Brain): 0.05 %ID/g
- tissue uptake at 0.5 h (in vivo; iv, Fat): 0.59 %ID/g
- tissue uptake at 1 h (in vivo; iv, Fat): 0.67 %ID/g
- tissue uptake at 1.5 h (in vivo; iv, Fat): 0.49 %ID/g
- tissue uptake at 0.5 h (in vivo; iv, Heart): 0.96 %ID/g
- tissue uptake at 1 h (in vivo; iv, Heart): 1.25 %ID/g
- tissue uptake at 1.5 h (in vivo; iv, Heart): 0.81 %ID/g
- tissue uptake at 0.5 h (in vivo; iv, Kidneys): 7.77 %ID/g
- tissue uptake at 1 h (in vivo; iv, Kidneys): 7.13 %ID/g
- tissue uptake at 1.5 h (in vivo; iv, Kidneys): 7 %ID/g
- tissue uptake at 0.5 h (in vivo; iv, Large intestine): 0.93 %ID/g
- tissue uptake at 1 h (in vivo; iv, Large intestine): 1.34 %ID/g
- tissue uptake at 1.5 h (in vivo; iv, Large intestine): 0.91 %ID/g
- tissue uptake at 0.5 h (in vivo; iv, Liver): 2.27 %ID/g
- tissue uptake at 1 h (in vivo; iv, Liver): 3.47 %ID/g
- tissue uptake at 1.5 h (in vivo; iv, Liver): 2.86 %ID/g
- tissue uptake at 0.5 h (in vivo; iv, Lungs): 4.59 %ID/g
- tissue uptake at 1 h (in vivo; iv, Lungs): 6.68 %ID/g
- tissue uptake at 1.5 h (in vivo; iv, Lungs): 4.39 %ID/g
- tissue uptake at 0.5 h (in vivo; iv, Muscle): 0.42 %ID/g
- tissue uptake at 1 h (in vivo; iv, Muscle): 0.66 %ID/g
- tissue uptake at 1.5 h (in vivo; iv, Muscle): 0.46 %ID/g
- tissue uptake at 0.5 h (in vivo; iv, Plasma): 2.41 %ID/g
- tissue uptake at 1 h (in vivo; iv, Plasma): 3.25 %ID/g
- tissue uptake at 1.5 h (in vivo; iv, Plasma): 2.13 %ID/g
- tissue uptake at 0.5 h (in vivo; iv, Small intestine): 1.1 %ID/g
- tissue uptake at 1 h (in vivo; iv, Small intestine): 2.01 %ID/g
- tissue uptake at 1.5 h (in vivo; iv, Small intestine): 1.89 %ID/g
- tissue uptake at 0.5 h (in vivo; iv, Spleen): 1.41 %ID/g
- tissue uptake at 1 h (in vivo; iv, Spleen): 3.02 %ID/g
- tissue uptake at 1.5 h (in vivo; iv, Spleen): 2.73 %ID/g
- tissue uptake at 0.5 h (in vivo; iv, Stomach): 1.16 %ID/g
- tissue uptake at 1 h (in vivo; iv, Stomach): 1.59 %ID/g
- tissue uptake at 1.5 h (in vivo; iv, Stomach): 0.98 %ID/g
- tissue uptake at 0.5 h (in vivo; iv, Whole blood): 1.68 %ID/g
- tissue uptake at 1 h (in vivo; iv, Whole blood): 1.86 %ID/g
- tissue uptake at 1.5 h (in vivo; iv, Whole blood): 1.1 %ID/g
- Accumulation (in vivo; mouse): Accumulation in liver, kidneys and lungs
- Muscle uptake (in vivo; mouse): Low muscle uptake
- Crossing of the blood-brain barrier (BBB) (in vivo; mouse, iv): no substantial signal was observed in the brain
- Stability [3]: Stable in vitro and in vivo up to 2 h.
